Source: patent US20060257938A1, “Method of screening for drugs that block ligand binding to a lipid binding protein” (priority 2005, published 2006)

Legend:
Type in all cases: binding
[1] = Probe fluorescence ratio response to oleic acid relative to ADIFAB2; settings: response relative to ADIFAB2
In short: (§1)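 Each fatty acid's response was expressed relative to ADIFAB2, the rI-FABP-L72A probe, as ΔR/ΔRreference. ΔR is the change in the background-corrected two-wavelength intensity ratio R=Fλ1/Fλ2 from its analyte-free baseline R0. Emission was read near about 420-480 nm for unbound and about 495-580 nm for FFA-bound probe.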

[2] = Probe fluorescence ratio response to linoleic acid relative to ADIFAB2; settings: response relative to ADIFAB2
In short: as §1

[3] = Probe fluorescence ratio response to linolenic acid relative to ADIFAB2; settings: response relative to ADIFAB2
In short: as §1

[4] = Probe fluorescence ratio response to arachidonic acid relative to ADIFAB2; settings: Arachidonic acid; response relative to ADIFAB2
In short: as §1

[5] = Probe fluorescence ratio response to palmitic acid relative to ADIFAB2; settings: response relative to ADIFAB2
In short: as §1

Molecule	DR/DR OA [1]	DR/DR LA [2]	DR/DR LNA [3]	DR/DR AA [4]	DR/DR PA [5]
51V3, 72A (protein, listed as Rattus norvegicus, PEPTIDE (1)...(131) wild-type rat intestinal fatty acid binding protein) AFDGTWKVDRNENYEKFMEKMGINVVKRKLGAHDNLKLTITQEGNKFTVKVSSNFRNIDVVFELGVDFAYSAADGTELTGTWTMEGNKLVGKFKRVDNGKELIAVREISGNELIQTYTYEGVEAKRIFKKE	1.43	1.64	1.53	1.52	0.73
51W2, 72A (protein, listed as Rattus norvegicus, PEPTIDE (1)...(131) wild-type rat intestinal fatty acid binding protein) AFDGTWKVDRNENYEKFMEKMGINVVKRKLGAHDNLKLTITQEGNKFTVKWSSNFRNIDVVFELGVDFAYSAADGTELTGTWTMEGNKLVGKFKRVDNGKELIAVREISGNELIQTYTYEGVEAKRIFKKE	1.55	1.77	1.70	1.69	0.80
55M1, 72A (protein, listed as Rattus norvegicus, PEPTIDE (1)...(131) wild-type rat intestinal fatty acid binding protein) AFDGTWKVDRNENYEKFMEKMGINVVKRKLGAHDNLKLTITQEGNKFTVKESSNMRNIDVVFELGVDFAYSAADGTELTGTWTMEGNKLVGKFKRVDNGKELIAVREISGNELIQTYTYEGVEAKRIFKKE	1.41	0.97	1.42	1.40	0.84
55L1, 72A (protein, listed as Rattus norvegicus, PEPTIDE (1)...(131) wild-type rat intestinal fatty acid binding protein) AFDGTWKVDRNENYEKFMEKMGINVVKRKLGAHDNLKLTITQEGNKFTVKESSNLRNIDVVFELGVDFAYSAADGTELTGTWTMEGNKLVGKFKRVDNGKELIAVREISGNELIQTYTYEGVEAKRIFKKE	0.82	0.71	0.72	0.86	0.63
55N1, 72A (protein, listed as Rattus norvegicus, PEPTIDE (1)...(131) wild-type rat intestinal fatty acid binding protein) AFDGTWKVDRNENYEKFMEKMGINVVKRKLGAHDNLKLTITQEGNKFTVKESSNNRNIDVVFELGVDFAYSAADGTELTGTWTMEGNKLVGKFKRVDNGKELIAVREISGNELIQTYTYEGVEAKRIFKKE	0.27	0.29	0.30	0.34	0.22
55Q1, 72A (protein, listed as Rattus norvegicus, PEPTIDE (1)...(131) wild-type rat intestinal fatty acid binding protein) AFDGTWKVDRNENYEKFMEKMGINVVKRKLGAHDNLKLTITQEGNKFTVKESSNQRNIDVVFELGVDFAYSAADGTELTGTWTMEGNKLVGKFKRVDNGKELIAVREISGNELIQTYTYEGVEAKRIFKKE	0.54	0.47	0.49	0.60	0.43
55G1, 72A (protein, listed as Rattus norvegicus, PEPTIDE (1)...(131) wild-type rat intestinal fatty acid binding protein) AFDGTWKVDRNENYEKFMEKMGINVVKRKLGAHDNLKLTITQEGNKFTVKESSNGRNIDVVFELGVDFAYSAADGTELTGTWTMEGNKLVGKFKRVDNGKELIAVREISGNELIQTYTYEGVEAKRIFKKE	0.19	0.22	0.23	0.19	0.18
55A1, 72A (protein, listed as Rattus norvegicus, PEPTIDE (1)...(131) wild-type rat intestinal fatty acid binding protein) AFDGTWKVDRNENYEKFMEKMGINVVKRKLGAHDNLKLTITQEGNKFTVKESSNARNIDVVFELGVDFAYSAADGTELTGTWTMEGNKLVGKFKRVDNGKELIAVREISGNELIQTYTYEGVEAKRIFKKE	0.30	0.34	0.36	0.33	0.28
55P1, 72A (protein, listed as Rattus norvegicus, PEPTIDE (1)...(131) wild-type rat intestinal fatty acid binding protein) AFDGTWKVDRNENYEKFMEKMGINVVKRKLGAHDNLKLTITQEGNKFTVKESSNPRNIDVVFELGVDFAYSAADGTELTGTWTMEGNKLVGKFKRVDNGKELIAVREISGNELIQTYTYEGVEAKRIFKKE	0.93	1.05	0.96	1.01	0.54
55E, 72A (protein, listed as Rattus norvegicus, PEPTIDE (1)...(131) wild-type rat intestinal fatty acid binding protein) AFDGTWKVDRNENYEKFMEKMGINVVKRKLGAHDNLKLTITQEGNKFTVKESSNERNIDVVFELGVDFAYSAADGTELTGTWTMEGNKLVGKFKRVDNGKELIAVREISGNELIQTYTYEGVEAKRIFKKE	0.21	0.21	0.21	0.21	0.17
55I1, 72A (protein, listed as Rattus norvegicus, PEPTIDE (1)...(131) wild-type rat intestinal fatty acid binding protein) AFDGTWKVDRNENYEKFMEKMGINVVKRKLGAHDNLKLTITQEGNKFTVKESSNIRNIDVVFELGVDFAYSAADGTELTGTWTMEGNKLVGKFKRVDNGKELIAVREISGNELIQTYTYEGVEAKRIFKKE	0.90	0.83	0.89	1.08	0.77
51Y1, 72A (protein, listed as Rattus norvegicus, PEPTIDE (1)...(131) wild-type rat intestinal fatty acid binding protein) AFDGTWKVDRNENYEKFMEKMGINVVKRKLGAHDNLKLTITQEGNKFTVKYSSNFRNIDVVFELGVDFAYSAADGTELTGTWTMEGNKLVGKFKRVDNGKELIAVREISGNELIQTYTYEGVEAKRIFKKE	1.38	1.50	1.44	1.38	0.72
55D1, 72A (protein, listed as Rattus norvegicus, PEPTIDE (1)...(131) wild-type rat intestinal fatty acid binding protein) AFDGTWKVDRNENYEKFMEKMGINVVKRKLGAHDNLKLTITQEGNKFTVKESSNDRNIDVVFELGVDFAYSAADGTELTGTWTMEGNKLVGKFKRVDNGKELIAVREISGNELIQTYTYEGVEAKRIFKKE	0.10	0.12	0.12	0.11	0.10
55H2, 72A (protein, listed as Rattus norvegicus, PEPTIDE (1)...(131) wild-type rat intestinal fatty acid binding protein) AFDGTWKVDRNENYEKFMEKMGINVVKRKLGAHDNLKLTITQEGNKFTVKESSNHRNIDVVFELGVDFAYSAADGTELTGTWTMEGNKLVGKFKRVDNGKELIAVREISGNELIQTYTYEGVEAKRIFKKE	0.27	0.38	0.32	0.36	0.26
55K1, 72A (protein, listed as Rattus norvegicus, PEPTIDE (1)...(131) wild-type rat intestinal fatty acid binding protein) AFDGTWKVDRNENYEKFMEKMGINVVKRKLGAHDNLKLTITQEGNKFTVKESSNKRNIDVVFELGVDFAYSAADGTELTGTWTMEGNKLVGKFKRVDNGKELIAVREISGNELIQTYTYEGVEAKRIFKKE	0.30	0.34	0.35	0.32	0.27
